Test results published in the supplement of paper PMC9112550, “Optimization of the antimicrobial peptide Bac7 by deep mutational scanning” (BMC Biology, 2022).

Tested on: Escherichia coli TOP10
Experiment: shrunken log2 fold change of peptide-encoding DNA abundance (4.5 h post-induction vs induction); higher = less antimicrobial activity (less host growth inhibition)
Conditions: time post-induction: 4.5 h; library: site-saturation at positions 5, 18, 19, 20
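Also: peptides expressed intracellularly from a pBAD plasmid library in pooled LB shake-flask culture, induced with 0.3% L-arabinose, DNA abundance read by NGS, three biological replicates, DESeq2 with apeglm shrinkage.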

Sequence	shrunken log2 fold change
RRIRQRPPRLPRPRPRPAQQPRP	0.00707
RRIRYRPPRLPRPRPRPTWAPRP	-0.0132
RRIRFRPPRLPRPRPRPPREPRP	0.43
RRIRIRPPRLPRPRPRPHFKPRP	-0.368
RRIRWRPPRLPRPRPRPLWDPRP	0.235
RRIRYRPPRLPRPRPRPWYTPRP	-1.81
RRIRIRPPRLPRPRPRPRYAPRP	-0.14
RRIRFRPPRLPRPRPRPPKHPRP	0.292
RRIRHRPPRLPRPRPRPYKIPRP	-0.373
RRIRSRPPRLPRPRPRPNYNPRP	-0.904
RRIRIRPPRLPRPRPRPQFQPRP	-0.166
RRIRHRPPRLPRPRPRPAPWPRP	0.0941
RRIRERPPRLPRPRPRPMFRPRP	-0.737
RRIRRRPPRLPRPRPRPKQWPRP	0.294
RRIRDRPPRLPRPRPRPVLMPRP	-0.134
RRIRIRPPRLPRPRPRPTGMPRP	-0.161
RRIRDRPPRLPRPRPRPQAMPRP	0.133
RRIRFRPPRLPRPRPRPKNIPRP	-0.485
RRIRVRPPRLPRPRPRPKWWPRP	0.0767
RRIRSRPPRLPRPRPRPWPPPRP	0.51
RRIRPRPPRLPRPRPRPHGTPRP	-0.0314
RRIRRRPPRLPRPRPRPALWPRP	1.02
RRIRCRPPRLPRPRPRPIATPRP	0.366
RRIRRRPPRLPRPRPRPRLSPRP	-0.0979
RRIRKRPPRLPRPRPRPNRPPRP	0.0563

Sequence	shrunken log2 fold change
RRIRNRPPRLPRPRPRPIKYPRP	-0.068
RRIRFRPPRLPRPRPRPMHSPRP	-0.263
RRIRVRPPRLPRPRPRPLHIPRP	-0.528
RRIRRRPPRLPRPRPRPPASPRP	0.615
RRIRTRPPRLPRPRPRPWFSPRP	-0.152
RRIRTRPPRLPRPRPRPDEGPRP	-0.0183
RRIRERPPRLPRPRPRPDAIPRP	-0.166
RRIRVRPPRLPRPRPRPKVSPRP	-0.0522
RRIRRRPPRLPRPRPRPHVCPRP	0.0988
RRIRRRPPRLPRPRPRPTTVPRP	0.792
RRIRKRPPRLPRPRPRPNIEPRP	0.115
RRIRCRPPRLPRPRPRPNNKPRP	-0.71
RRIRLRPPRLPRPRPRPIQAPRP	0.0789
RRIRWRPPRLPRPRPRPISMPRP	-0.209
RRIRMRPPRLPRPRPRPLILPRP	-0.429
RRIRIRPPRLPRPRPRPTNYPRP	-0.745
RRIRWRPPRLPRPRPRPPKHPRP	0.272
RRIRSRPPRLPRPRPRPKKPPRP	0.0165
RRIRIRPPRLPRPRPRPHVEPRP	-0.227
RRIRFRPPRLPRPRPRPPHIPRP	-0.21
RRIRYRPPRLPRPRPRPSVHPRP	-0.284
RRIRCRPPRLPRPRPRPQQHPRP	-0.113
RRIRPRPPRLPRPRPRPHHSPRP	-0.454
RRIRTRPPRLPRPRPRPETCPRP	-0.0408
RRIRARPPRLPRPRPRPNILPRP	-0.00643

Sequence	shrunken log2 fold change
RRIRPRPPRLPRPRPRPMHSPRP	0.355
RRIRSRPPRLPRPRPRPRKGPRP	0.208
RRIRLRPPRLPRPRPRPTTMPRP	-0.439
RRIRTRPPRLPRPRPRPHAQPRP	0.211
RRIRPRPPRLPRPRPRPDVAPRP	-0.0448
RRIRNRPPRLPRPRPRPYKNPRP	-0.941
RRIRERPPRLPRPRPRPMNWPRP	0.0377
RRIRERPPRLPRPRPRPRNRPRP	-0.134
RRIRCRPPRLPRPRPRPRMEPRP	0.0253
RRIRNRPPRLPRPRPRPKFAPRP	-0.0695
RRIRYRPPRLPRPRPRPNISPRP	-0.513
RRIRLRPPRLPRPRPRPEWRPRP	-0.0482
RRIRTRPPRLPRPRPRPLRIPRP	0.00602
RRIRARPPRLPRPRPRPCSVPRP	0.0736
RRIRMRPPRLPRPRPRPFMHPRP	-0.647
RRIRTRPPRLPRPRPRPKHCPRP	-0.0769
RRIRVRPPRLPRPRPRPVYGPRP	-0.167
RRIRARPPRLPRPRPRPAAWPRP	0.613
RRIRFRPPRLPRPRPRPQNTPRP	-0.512
RRIRERPPRLPRPRPRPMHKPRP	0.0621
RRIRERPPRLPRPRPRPMAMPRP	0.0346
RRIRMRPPRLPRPRPRPCLNPRP	-0.0184
RRIRPRPPRLPRPRPRPKPFPRP	0.129
RRIRKRPPRLPRPRPRPFIHPRP	-0.0282
RRIRYRPPRLPRPRPRPACAPRP	-0.236

Sequence	shrunken log2 fold change
RRIRYRPPRLPRPRPRPGDVPRP	-0.484
RRIRARPPRLPRPRPRPQPAPRP	0.679
RRIRGRPPRLPRPRPRPVCCPRP	0.957
RRIRMRPPRLPRPRPRPIFPPRP	0.229
RRIRKRPPRLPRPRPRPDHEPRP	-0.013
RRIRARPPRLPRPRPRPSPCPRP	0.0808
RRIRHRPPRLPRPRPRPTYPPRP	0.0921
RRIRKRPPRLPRPRPRPHDTPRP	-0.0804
RRIRIRPPRLPRPRPRPHVAPRP	-0.189
RRIRCRPPRLPRPRPRPYLMPRP	-0.916
RRIRCRPPRLPRPRPRPSREPRP	-0.184
RRIRYRPPRLPRPRPRPGCVPRP	-0.202
RRIRDRPPRLPRPRPRPWMFPRP	-0.0535
RRIRYRPPRLPRPRPRPNHEPRP	-0.657
RRIRPRPPRLPRPRPRPDVNPRP	-0.233
RRIRPRPPRLPRPRPRPESLPRP	-0.0197
RRIRRRPPRLPRPRPRPDFGPRP	0.0803
RRIRRRPPRLPRPRPRPSMWPRP	0.168
RRIRKRPPRLPRPRPRPHWRPRP	0.3
RRIRWRPPRLPRPRPRPQWGPRP	0.293
RRIRARPPRLPRPRPRPPPDPRP	1.18
RRIRWRPPRLPRPRPRPVTLPRP	-0.147
RRIRWRPPRLPRPRPRPPQLPRP	0.462
RRIRLRPPRLPRPRPRPNMEPRP	0.116
RRIRWRPPRLPRPRPRPWVQPRP	0.128

Sequence	shrunken log2 fold change
RRIRNRPPRLPRPRPRPWNFPRP	-0.0018
RRIRCRPPRLPRPRPRPYYLPRP	-0.38
RRIRIRPPRLPRPRPRPRQHPRP	-0.199
RRIRNRPPRLPRPRPRPQHVPRP	0.000105
RRIRERPPRLPRPRPRPFCHPRP	-0.0629
RRIRERPPRLPRPRPRPYACPRP	-0.0634
RRIRARPPRLPRPRPRPEWVPRP	0.775
RRIRNRPPRLPRPRPRPFGRPRP	-0.0535
RRIRARPPRLPRPRPRPDQQPRP	-0.0359
RRIRCRPPRLPRPRPRPKWEPRP	0.173
RRIRMRPPRLPRPRPRPGPQPRP	1.21
RRIRNRPPRLPRPRPRPHLPPRP	0.0211
RRIRPRPPRLPRPRPRPQGWPRP	0.542
RRIRVRPPRLPRPRPRPFIKPRP	-0.865
RRIRTRPPRLPRPRPRPMNWPRP	-0.234
RRIRFRPPRLPRPRPRPSSRPRP	-0.273
RRIRQRPPRLPRPRPRPQQHPRP	-0.362
RRIRVRPPRLPRPRPRPNLWPRP	-0.0401
RRIRRRPPRLPRPRPRPHVRPRP	0.0936
RRIRWRPPRLPRPRPRPPCSPRP	-0.00461
RRIRSRPPRLPRPRPRPVWGPRP	0.185
RRIRSRPPRLPRPRPRPPGRPRP	0.482
RRIRNRPPRLPRPRPRPECIPRP	2.1
RRIRLRPPRLPRPRPRPVKQPRP	-0.0196
RRIRARPPRLPRPRPRPIPQPRP	-0.0224
